Reference: ChEMBL document CHEMBL2074128, “Cytotoxicity of antiviral nucleotides adefovir and cidofovir is induced by the expression of human renal organic anion transporter 1” (J Am Soc Nephrol, 2000)

Columns and labels:
[1] = substrate: Nc1ncnc2c1ncn2CCOCP(=O)(O)O; assay: TP_TRANSPORTER: uptake in OAT1-expressing CHO cells; type: functional, cell-based
[2] = substrate: Nc1ccn(C[C@@H](CO)OCP(=O)(O)O)c(=O)n1; assay: cells, lysate or membranes named

B1: Solute carrier family 22 member 6 (Homo sapiens) (protein)
chain: MAFNDLLQQVGGVGRFQQIQVTLVVLPLLLMASHNTLQNFTAAIPTHHCRPPADANLSKNGGLEVWLPRDRQGQPESCLRFTSPQWGLPFLNGTEANGTGATEPCTDGWIYDNSTFPSTIVTEWDLVCSHRALRQLAQSLYMVGVLLGAMVFGYLADRLGRRKVLILNYLQTAVSGTCAAFAPNFPIYCAFRLLSGMALAGISLNCMTLNVEWMPIHTRACVGTLIGYVYSLGQFLLAGVAYAVPHWRHLQLLVSAPFFAFFIYSWFFIESARWHSSSGRLDLTLRALQRVARINGKREEGAKLSMEVLRASLQKELTMGKGQASAMELLRCPTLRHLFLCLSMLWFATSFAYYGLVMDLQGFGVSIYLIQVIFGAVDLPAKLVGFLVINSLGRRPAQMAALLLAGICILLNGVIPQDQSIVRTSLAVLGKGCLAASFNCIFLYTGELYPTMIRQTGMGMGSTMARVGSIVSPLVSMTAELYPSMPLFIYGAVPVAASAVTVLLPETLGQPLPDTVQDLESRWAPTQKEAGIYPRKGKQTRQQQEHQKYMVPLQASAQEKNGL
[1]
  Km: 23.8 µM
[2]
  Km: 58 µM
